Assay results published in paper PMC11162321 (Structure (London, England : 1993), 2024).

Legend:
[1] = biological target: T1, F-actin (rabbit skeletal muscle α-actin, filamentous) (rabbit (Oryctolagus cuniculus), UniProt P68135 1-377); experiment: other fluorescence titration
[2] = biological target: T1, F-actin (rabbit skeletal muscle …); experiment: fluorescence polarisation

Binder | Kd [1] [nM] | Kd [2] [nM]
SipAC-Core (SipA residues 512-658), unlabelled (domain or fragment) TGPFSGLKFKQNSFLSTVPSVTNMHSMHFDARETFLGVIRKALEPDTSTPFPVRRAFDGLRAEILPNDTIKSAALKAQCSDIDKHPELKAKMETLKEVITHHPQKEKLAEIALQFAREAGLTRLKGETDYVLSNVLDGLIGDGSWRA | 81 | 
FM-SipAC-ΔArm2 (SipA residues 425-658 labelled with fluorescein maleimide) (domain or fragment, labeled with fluorescein maleimide (FM)) TGETTSFDEVDGVTSKSIIGKPVQATVHGVDDNKQQSQTAEIVNVKPLASQLAGVENVKTDTLQSDTTVITGNKAGTTDNDNSQTDKTGPFSGLKFKQNSFLSTVPSVTNMHSMHFDARETFLGVIRKALEPDTSTPFPVRRAFDGLRAEILPNDTIKSAALKAQCSDIDKHPELKAKMETLKEVITHHPQKEKLAEIALQFAREAGLTRLKGETDYVLSNVLDGLIGDGSWRA |  | 120
